Where two headings read alike, the source gives them in different places. Values belong to the molecule of their own block, whether it stands above or below them. *1 amine or outer side, *2 acyl side, *3 side chain or, on linkers, in order; H or OH if unused. Where a SMILES comes first, the peptide text is derived from it. Bridges are numbered along the chain shown (N, C = ends). Primed or numbered codes have the meaning given here. Side-chain parts run from the residue outwards. [ ]: non-standard residue; d: D form. The star is where a group is joined. X1 = NC(=O)C1CCC(CN2C(=O)CC(*)C2=O)CC1; βAsp = O=C(O)[C@H](CC(=O)[*:2])N[*:1]; dPhg = N[C@@H](C(=O)O)c1ccccc1; SMCC = sulfo-SMCC linker; OH′ = O*
Legend:
αvβ3 = molecular target: T1, αvβ3 (Homo sapiens, UniProt P05106+P06756); experiment: Competitive integrin binding assay (isoDGR/STV-HRP) on αvβ3-coated plates; conditions: number in parenthesis
T1 construct: purchased Immunological Sciences (Rome, Italy)
Method: (§1) A conjugate consisting of biotinylated acetyl-Ciso[…] (SEQ ID NO:36) peptide complexed with streptavidin-peroxidase conjugate (isoDGR/STV-HRP) was first prepared as described previously. […] Each mixture was then added to microtiter plates coated with integrins (αvβ3, αvβ5, αvβ6, […], or α5β1) and incubated for 2 h at room temperature. After washing, each well was incubated with 70 μl of chromogenic solution (o-phenylenediamine dihydrochloride) for 20 min, at room temperature. The chromogenic reaction was stopped by adding an equal volume of 1 N sulfuric acid. The absorbance at 490 nm was then measured using a microtiter plate reader.
(§2) The binding affinity and selectivity of each peptide for different integrins were then analyzed by competitive binding assay, using αvβ3-, αvβ5-, αvβ6-, αvβ8- and α5β1-coated plates and isoDGR/STV-HRP, an ac-isoDGR-2C/peroxidase complex, as competitor.

αvβ5 = molecular target: T2, αvβ5 (Homo sapiens, UniProt P06756+P18084); experiment: Competitive integrin binding assay (isoDGR/STV-HRP) on αvβ5-coated plates; conditions: number in parenthesis
T2 construct: purchased Immunological Sciences (Rome, Italy)
Method: as §1, §2

αvβ6 = molecular target: T3, αvβ6 (Homo sapiens, UniProt P06756+P18564); experiment: Competitive integrin binding assay (isoDGR/STV-HRP) on αvβ6-coated plates; conditions: number in parenthesis
T3 construct: purchased R&D System (Minneapolis, Minn.)
Method: as §1, §2

αvβ8 = molecular target: T4, αvβ8 (Homo sapiens, UniProt P06756+P26012); experiment: Competitive integrin binding assay (isoDGR/STV-HRP) on αvβ8-coated plates; conditions: number in parenthesis
T4 construct: purchased R&D System (Minneapolis, Minn.)
Method: as §1, §2

α5β1 = molecular target: T5, α5β1 (Homo sapiens, UniProt P05556+P08648); experiment: Competitive integrin binding assay (isoDGR/STV-HRP) on α5β1-coated plates; conditions: number in parenthesis
T5 construct: purchased Immunological Sciences (Rome, Italy)
Method: as §1, §2

Human integrin αvβ3 [1] = molecular target: T6, Human integrin αvβ3 (human, UniProt P06756 31-1048; P05106 27-788, limits assumed); experiment: competitive binding assay, integrin-coated plate, probe isoDGR/STV-HRP
T6 construct: Bought from Immunological Sciences; coated on microtiter plates or spotted on nitrocellulose; also called avb3; purified αvβ3-integrin

Human integrin αvβ5 [2] = molecular target: T7, Human integrin αvβ5 (human, UniProt P06756 31-1048; P18084 24-799, limits assumed); experiment: as above
T7 construct: Bought from Immunological Sciences; coated on microtiter plates

[3] = molecular target: T8, Recombinant human integrin αvβ6 (human, UniProt P06756 31-992; P18564 22-707); experiment: as above
T8 construct: Bought from R&D System

[4] = molecular target: T9, Recombinant human integrin αvβ8 (human, UniProt P06756 31-992; P26012 43-684); experiment: as above
T9 construct: Bought from R&D System; also called αvβ38 [sic]

Human integrin α5β1 [5] = molecular target: T10, Human integrin α5β1 (human, UniProt P08648 42-1049; P05556 21-798, limits assumed); experiment: as above
T10 construct: Bought from Immunological Sciences; coated on microtiter plates

Human integrin αvβ3 [6] = molecular target: T6, Human integrin αvβ3; experiment: as above; remark: listed apart in the source
Human integrin αvβ5 [7] = molecular target: T7, Human integrin αvβ5; experiment: as above; remark: listed apart in the source
[8] = molecular target: T8, Recombinant human integrin αvβ6; experiment: as above; remark: listed apart in the source
[9] = molecular target: T9, Recombinant human integrin αvβ8; experiment: as above; remark: listed apart in the source
Human integrin α5β1 [10] = molecular target: T10, Human integrin α5β1; experiment: as above; remark: listed apart in the source

Molecule: N=C(N)NCCC[C@@H]1NC(=O)CNC(=O)C[C@@H](C(=O)O)NC(=O)CNC(=O)[C@H](CSC2CC(=O)N(CC3CCC(C(N)=O)CC3)C2=O)NC(=O)CNC1=O (stereo partly shown) [isoDGR#1-P1] (GRGC(X1)GD-OH; lactam N-6)
- ratio of integrin Ki/αvβ3 Ki (αvβ3) (αvβ3): (1)
- ratio of integrin Ki/αvβ3 Ki (αvβ5) (αvβ5): (1)^
- ratio of integrin Ki/αvβ3 Ki (αvβ6) (αvβ6): (17)
- ratio of integrin Ki/αvβ3 Ki (αvβ8) (αvβ8): (160)
- ratio of integrin Ki/αvβ3 Ki (α5β1) (α5β1): (8.6)

Molecule: N=C(N)NCCC[C@@H]1NC(=O)CNC(=O)C[C@@H](C(=O)O)NC(=O)[C@H](CS)NC(=O)CNC1=O [isoDGR#2, c(CisoDGRG)] (GRGCD-OH; lactam N-5)
- ratio of integrin Ki/αvβ3 Ki (αvβ3) (αvβ3): (1)
- ratio of integrin Ki/αvβ3 Ki (αvβ5) (αvβ5): (1)
- ratio of integrin Ki/αvβ3 Ki (αvβ6) (αvβ6): (1.9)
- ratio of integrin Ki/αvβ3 Ki (αvβ8) (αvβ8): (2.2)
- ratio of integrin Ki/αvβ3 Ki (α5β1) (α5β1): (0.5)

Molecule: N=C(N)NCCC[C@@H]1NC(=O)CNC(=O)C[C@@H](C(=O)O)NC(=O)[C@H](CS)NC(=O)[C@@H](c2ccccc2)NC(=O)CNC1=O [isoDGR#7, c(CisoDGRGphg)] (GRG[dPhg]CD-OH; lactam N-6)
- ratio of integrin Ki/αvβ3 Ki (αvβ3) (αvβ3): (1)
- ratio of integrin Ki/αvβ3 Ki (αvβ5) (αvβ5): (0.6)
- ratio of integrin Ki/αvβ3 Ki (αvβ6) (αvβ6): (0.03)
- ratio of integrin Ki/αvβ3 Ki (αvβ8) (αvβ8): (0.4)
- ratio of integrin Ki/αvβ3 Ki (α5β1) (α5β1): (0.04)

B2: c(CGisoDGRG) (peptide)
peptide: cyclo(CG[βAsp]GRG)
SMILES: N=C(N)NCCC[C@@H]1NC(=O)CNC(=O)C[C@@H](C(=O)O)NC(=O)CNC(=O)[C@H](CS)NC(=O)CNC1=O
notes: also called isoDGR#1
- Ki (Human integrin αvβ3 [6]): 0.103 µM
- ratio of integrin Ki/αvβ3 Ki (Human integrin αvβ3 [6]): 1
- Ki (Human integrin αvβ5 [7]): 0.225 µM
- ratio of integrin Ki/αvβ3 Ki (Human integrin αvβ5 [7]): 2
- Ki [8]: 1.47 µM
- ratio of integrin Ki/αvβ3 Ki [8]: 14
- Ki [9]: 7.27 µM
- ratio of integrin Ki/αvβ3 Ki [9]: 70
- Ki (Human integrin α5β1 [10]): 0.32 µM
- ratio of integrin Ki/αvβ3 Ki (Human integrin α5β1 [10]): 3

B6: c(CisoDGRG) (peptide)
peptide: cyclo(C[βAsp]GRG)
SMILES: N=C(N)NCCC[C@@H]1NC(=O)CNC(=O)C[C@@H](C(=O)O)NC(=O)[C@H](CS)NC(=O)CNC1=O
notes: also called isoDGR#2
- Ki (Human integrin αvβ3 [6]): 0.483 µM
- ratio of integrin Ki/αvβ3 Ki (Human integrin αvβ3 [6]): 1
- Ki (Human integrin αvβ5 [7]): 0.492 µM
- ratio of integrin Ki/αvβ3 Ki (Human integrin αvβ5 [7]): 1
- Ki [8]: 0.899 µM
- ratio of integrin Ki/αvβ3 Ki [8]: 1.9
- Ki [9]: 1.08 µM
- ratio of integrin Ki/αvβ3 Ki [9]: 2.2
- Ki (Human integrin α5β1 [10]): 0.266 µM
- ratio of integrin Ki/αvβ3 Ki (Human integrin α5β1 [10]): 0.5

Next, values leading:

- Ki (Human integrin αvβ3 [1]): 0.035 µM
- ratio of integrin Ki/αvβ3 Ki (Human integrin αvβ3 [1]): 1
- Ki (Human integrin αvβ5 [2]): 0.035 µM
- ratio of integrin Ki/αvβ3 Ki (Human integrin αvβ5 [2]): 1
- Ki [3]: 0.583 µM
- ratio of integrin Ki/αvβ3 Ki [3]: 17
- Ki [4]: 5.6 µM
- ratio of integrin Ki/αvβ3 Ki [4]: 160
- Ki (Human integrin α5β1 [5]): 0.302 µM
- ratio of integrin Ki/αvβ3 Ki (Human integrin α5β1 [5]): 8.6
B1: isoDGR#1-linker conjugate, peak P1 (peptide)
peptide: cyclo(C([SMCC-NH2])G[βAsp]GRG)
notes: HPLC peak P1 (amido form); also called isoDGR#1-P1

- Ki (Human integrin αvβ3 [1]): 0.018 µM
B3: isoDGR#3-linker conjugate, peak P2 (peptide)
peptide: cyclo(C(SMCC)[βAsp]GRGG)
modifications: not fully specified
notes: said to be similar to isoDGR#1-linker (P2 carboxylic form); also called isoDGR#3-P2

- Ki (Human integrin αvβ3 [1]): 0.033 µM
- ratio of integrin Ki/αvβ3 Ki (Human integrin αvβ3 [1]): 1
- Ki (Human integrin αvβ5 [2]): 0.052 µM
- ratio of integrin Ki/αvβ3 Ki (Human integrin αvβ5 [2]): 1.6
- Ki [3]: 2.73 µM
- ratio of integrin Ki/αvβ3 Ki [3]: 80
- Ki [4]: 10.5 µM
- ratio of integrin Ki/αvβ3 Ki [4]: 318
- Ki (Human integrin α5β1 [5]): 0.318 µM
- ratio of integrin Ki/αvβ3 Ki (Human integrin α5β1 [5]): 9.6
B4: isoDGR#1-linker conjugate, peak P2 (peptide)
peptide: cyclo(C([SMCC-OH′])G[βAsp]GRG)
notes: HPLC peak P2 (carboxylic form, partial hydrolysis of sulfo-succinimide); also called isoDGR#1-P2

- Ki (Human integrin αvβ3 [6]): 0.043 µM
- Ki (Human integrin αvβ5 [7]): 0.042 µM
- Ki [8]: 0.058 µM
- Ki [9]: 0.054 µM
- Ki (Human integrin α5β1 [10]): 0.021 µM
B5: c(CisoDGRGG) (peptide)
peptide: cyclo(C[βAsp]GRGG)
SMILES: N=C(N)NCCC[C@@H]1NC(=O)CNC(=O)C[C@@H](C(=O)O)NC(=O)[C@H](CS)NC(=O)CNC(=O)CNC1=O
notes: also called isoDGR#3

Source: US9561289B2, “Peptides for inhibiting tumor growth” (OSPEDALE SAN RAFFAELE SRL, priority 2012, dated 2017)
